Molecular target: human P2X4 (human) (UniProt Q99571)
Assay: cell-based or functional assay

Chain of human P2X4 (human) (Q99571 whole entry): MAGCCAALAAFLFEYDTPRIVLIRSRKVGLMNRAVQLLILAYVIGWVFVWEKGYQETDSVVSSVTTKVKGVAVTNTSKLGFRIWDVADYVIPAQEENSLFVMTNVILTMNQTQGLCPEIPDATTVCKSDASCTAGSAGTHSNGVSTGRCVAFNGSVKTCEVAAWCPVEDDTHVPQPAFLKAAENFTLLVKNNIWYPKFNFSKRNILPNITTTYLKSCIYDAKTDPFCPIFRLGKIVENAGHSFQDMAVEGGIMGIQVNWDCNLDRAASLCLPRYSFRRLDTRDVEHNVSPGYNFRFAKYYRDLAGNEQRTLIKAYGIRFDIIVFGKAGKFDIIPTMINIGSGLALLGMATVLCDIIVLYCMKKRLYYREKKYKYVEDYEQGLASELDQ

isotype control IgG NIP 228 (antibody) showed a Fraction of control at human P2X4 (Exp 1), mean, at 7.8 µM; QPatch electrophysiology, ATP-evoked currents (fraction of control) of 1.4 and a Fraction of control at human P2X4 (Exp 2), mean, at 7.8 µM; QPatch electrophysiology, ATP-evoked currents (fraction of control) of 1.36.

Reference: US10829540
